Fold change of the interaction after 4 h of ER stress against unstressed controls data for 1 substance are collected here from PMC13431160.

For the assay, the target named is IRE1, ER stress sensor RNase, endogenous in HCT116 cells (human (endogenous in HCT116)) (UniProt O75460). The assay can be described thus: co-IP; endogenous IRE1 immunoprecipitated from HCT116 WT lysate (anti-IRE1 clone B-12 cross-linked to protein G Dynabeads, 3 h at 4°C; 25 mM HEPES pH 7.3, 150 mM NaCl, 0.5% NP-40); cells treated with DMSO or TM 5 µg/mL 4 h; with or without RNase I and RNase T1 in the second wash; Western blot of IGF2BP3. (In general: Immunoblotting shows a protein as a band on a membrane.)
Sequence of UniProt O75460 (O75460 19-977): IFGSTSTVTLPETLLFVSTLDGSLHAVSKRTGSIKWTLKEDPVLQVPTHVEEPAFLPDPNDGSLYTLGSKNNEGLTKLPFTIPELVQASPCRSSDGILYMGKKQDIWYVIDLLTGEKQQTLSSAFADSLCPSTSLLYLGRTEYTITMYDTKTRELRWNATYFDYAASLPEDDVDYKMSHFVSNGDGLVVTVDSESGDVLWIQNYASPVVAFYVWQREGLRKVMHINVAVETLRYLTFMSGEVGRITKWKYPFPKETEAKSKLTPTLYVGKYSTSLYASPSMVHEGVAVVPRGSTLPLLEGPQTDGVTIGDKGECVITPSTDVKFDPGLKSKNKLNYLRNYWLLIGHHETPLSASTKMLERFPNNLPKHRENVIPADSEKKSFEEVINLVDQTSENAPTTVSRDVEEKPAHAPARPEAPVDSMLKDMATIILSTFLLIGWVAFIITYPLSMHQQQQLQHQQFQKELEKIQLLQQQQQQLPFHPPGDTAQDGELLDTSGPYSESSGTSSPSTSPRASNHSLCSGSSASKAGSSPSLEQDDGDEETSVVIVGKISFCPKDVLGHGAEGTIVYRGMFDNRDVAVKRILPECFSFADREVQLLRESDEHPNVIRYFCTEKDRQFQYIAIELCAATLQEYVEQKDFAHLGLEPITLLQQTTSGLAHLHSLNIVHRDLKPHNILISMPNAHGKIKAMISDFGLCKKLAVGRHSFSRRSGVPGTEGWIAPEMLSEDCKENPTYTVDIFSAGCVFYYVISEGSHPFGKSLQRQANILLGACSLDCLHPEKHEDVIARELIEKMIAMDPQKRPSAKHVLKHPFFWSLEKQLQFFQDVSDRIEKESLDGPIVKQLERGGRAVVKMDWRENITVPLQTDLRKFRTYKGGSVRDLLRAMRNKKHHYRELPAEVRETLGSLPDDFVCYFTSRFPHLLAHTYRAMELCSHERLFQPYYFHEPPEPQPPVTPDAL

In the case of “IGF2BP3 (insulin-like growth factor 2 mRNA-binding protein 3), endogenous in HCT116 cells (from UniProt O00425 1-579) (natural protein)”, the fold change of the interaction after 4 h of ER stress against unstressed controls stood at 1.6 fold.
